Results from US20260184782A1 (TWIST BIOSCIENCE, published 2026).

T1: TIGIT (UniProt Q495A1 22-141, limits assumed)
T1 construct: construct not described; also called T cell immunoreceptor with Ig and ITIM domains
T1 sequence (looked up): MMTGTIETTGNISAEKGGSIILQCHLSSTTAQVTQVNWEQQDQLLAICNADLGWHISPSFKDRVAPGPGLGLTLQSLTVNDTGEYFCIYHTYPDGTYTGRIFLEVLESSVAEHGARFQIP

T2: TIGIT (UniProt Q495A1 22-141, limits assumed)
T2 construct: also called T cell immunoreceptor with Ig and ITIM domains; hTIGIT
T2 sequence (looked up): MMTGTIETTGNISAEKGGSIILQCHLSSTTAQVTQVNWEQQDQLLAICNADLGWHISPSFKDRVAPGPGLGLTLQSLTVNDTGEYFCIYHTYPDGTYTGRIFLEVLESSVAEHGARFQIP

T3: human TIGIT-Fc (human, UniProt Q495A1 22-141, limits assumed)
T3 construct: not shown: Fc; not described
T3 sequence (looked up): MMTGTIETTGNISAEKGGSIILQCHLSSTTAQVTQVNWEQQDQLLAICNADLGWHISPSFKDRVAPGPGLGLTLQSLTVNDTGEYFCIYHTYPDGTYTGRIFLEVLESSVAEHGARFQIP


Legend:
TIGIT [1] = target: T1, TIGIT; assay: SPR, VHH-V5-His
TIGIT [2] = target: T2, TIGIT; assay: SPR, VHH-V5-His
human TIGIT-Fc [3] = target: T3, human TIGIT-Fc; assay: CD155 competition ELISA, titration
Method: (§1) TIGIT/CD155 inhibition of VHH-Fcs were assessed using an ELISA assay (Table 10B). Briefly, human TIGIT-Fc was coated on a plate & then incubated with VHH-Fcs and human CD155-biotin. Bound CD155-biotin was detected using a streptavidin-HRP conjugate visualized with TMB. Strong inhibitors from the single point screen were titrated to determine EC50 (Table 10C).

human TIGIT-Fc [4] = target: T3, human TIGIT-Fc; assay: CD155 competition ELISA, single point; also: test concentration or dose not given here
Method: as §1

TIGIT [5] = target: T1, TIGIT; assay: SPR, VHH-V5-His; unit inferred

EC50 (human TIGIT-Fc [3]) [nM] | OD (450 nm) (human TIGIT-Fc [4]) [OD] | Binder | also measured
 |  | TIGIT-29-06 VHH-V5-His (VHH, not shown: V5 and His tags) VHH: EVQLVESGGGLVQAGGSLRLSCAASGGTFRSYVMGWFRQAPGKEREWVATINSSGSRTYYADSVKGRFTISADNAKNTVYLQMNSLKPEDTAVYYCAARPNYRDYEYWGQGTQVTVSS | RU (TIGIT [1]): 26100 RU
 |  | TIGIT-31-32 (VHH-V5-His) (VHH, not shown: V5-His tag) VHH: EVQLVESGGGLVQPGGSLRLSCAASGFTFSTSWMGWFRQAPGKERELVAAMTSGGGTNYADSVKGRFTISADNSKNTAYLQMNSLKPEDTAVYYCAADVWYGSTWRNWGQGTLVTVSS | Kd (TIGIT [2]): 102 nM; RU (TIGIT [2]): 145 RU; koff (TIGIT [2]): 0.006 s⁻¹; kon (TIGIT [2]): 60000 M⁻¹ s⁻¹
 |  | TIGIT-31-47 (VHH-V5-His) (VHH, not shown: V5-His tag) VHH: EVQLVESGGGLVQPGGSLRLSCAASGFTFSGNWMGWFRQAPGKEREWVVGISSGGTPHYADSVKGRFTISADNSKNTAYLQMNSLKPEDTAVYYCAADVWYGSTWRNWGQGTLVTVSS | Kd (TIGIT [2]): 186 nM; RU (TIGIT [2]): 119 RU; koff (TIGIT [2]): 0.004 s⁻¹; kon (TIGIT [2]): 20000 M⁻¹ s⁻¹
 |  | TIGIT-31-35 (VHH-V5-His) (VHH, not shown: V5-His tag) VHH: EVQLVESGGGLVQPGGSLRLSCAASGFTFSTSWMGWFRQAPGKERELVASITSGGTTNYADSVKGRFTISADNSKNTAYLQMNSLKPEDTAVYYCAADVWYGSTWRNWGQGTLVTVSS | Kd (TIGIT [2]): 346 nM; RU (TIGIT [2]): 78 RU; koff (TIGIT [2]): 0.01 s⁻¹; kon (TIGIT [2]): 30000 M⁻¹ s⁻¹
3.47 | 0.129 | TIGIT-SC51 (Fc fusion, VHH-Fc) VHH: EVQLVESGGGLVQPGGSLRLSCAASGRTEANYAMGWFRQAPGKEREFVAAISWDGGATAYADSVKGRFTISADNSKNTAYLQMNSLKPEDTAVYYCGDYEGHWGQGTLVTVSS | 
6.52 | 0.607 | TIGIT-SC68 (Fc fusion, VHH-Fc) VHH: EVQLVESGGGLVQPGGSLRLSCAASGHTFRGYAMGWFRQAPGKEREAVAAISWSGDNTYYADSVKGRFTISADNSKNTAYLQMNSLKPEDTAVYYCGDYEGHWGQGTLVTVSS | 
1.23 | 0.149 | TIGIT-SC67 (Fc fusion, VHH-Fc) VHH: EVQLVESGGGLVQPGGSLRLSCAASGFTFDRSWMGWFRQAPGKEREWVSTIYSNGTPAYADSVKGRFTISADNSKNTAYLQMNSLKPEDTAVYYCARRGLPSYSYGMDVWGQGTLVTVSS | 
 |  | TIGIT-30-30 VHH-V5-His (VHH, not shown: V5 and His tags) VHH: EVQLVESGGGLVQAGGSLRLSCAASGGTFSGRGMGWFRQAPGKEREWVSSVYIFGGSTYYADSVKGRFTISADNAKNTVYLQMNSLKPEDTAVYYCANSNKPKFDWGQGTQVTVSS | RU (TIGIT [1]): 3 RU
4.08 | 0.25 | TIGIT-SC82 (Fc fusion, VHH-Fc) VHH: EVQLVESGGGLVQPGGSLRLSCAASGSMSSNYAMGWFRQAPGKEREFVAAIDWSGGNTYYADSVKGRFTISADNSKNTAYLQMNSLKPEDTAVYYCAKWFYYGSGLYTLDVWGQGTLVTVSS | 
4.36 | 0.241 | TIGIT-SC83 (Fc fusion, VHH-Fc) VHH: EVQLVESGGGLVQPGGSLRLSCAASGRTFSDDAMGWFRQAPGKEREFVAAISRSGGNTYYADSVKGRFTISADNSKNTAYLQMNSLKPEDTAVYYCAKWFYYGSGLYTLDVWGQGTLVTVSS | 
 |  | TIGIT-29-01 VHH-V5-His (VHH, not shown: V5 and His tags) VHH: EVQLVESGGGLVQAGGSLRLSCAASGRTFSNYAMGWFRQAPGKEREFVAAITWSGTRTDYADSVKGRFTISADNAKNTVYLQMNSLKPEDTAVYYCAAAAWTIYEYDYWGQGTQVTVSS | RU (TIGIT [1]): 88 RU; Kd (TIGIT [5]): 365 nM
 |  | TIGIT-29-07 VHH-V5-His (VHH, not shown: V5 and His tags) VHH: EVQLVESGGGLVQAGGSLRLSCAASGSIFSNYAMGWFRQAPGKEREFVATISRGGTRTNYADSVKGRFTISADNAKNTVYLQMNSLKPEDTAVYYCAAAAWTIYAYNYWGQGTQVTVSS | RU (TIGIT [1]): 26 RU; Kd (TIGIT [5]): 465 nM
 |  | TIGIT-29-12 VHH-V5-His (VHH, not shown: V5 and His tags) VHH: EVQLVESGGGLVQAGGSLRLSCAASGSTFSSYAMGWFRQAPGKEREFVAAITWSGTRTNYADSVKGRFTISADNAKNTVYLQMNSLKPEDTAVYYCAAAAWTIYTYDSWGQGTQVTVSS | RU (TIGIT [1]): 464 RU; Kd (TIGIT [5]): 8580 nM
 |  | TIGIT-29-30 VHH-V5-His (VHH, not shown: V5 and His tags) VHH: EVQLVESGGGLVQAGGSLRLSCAASGFTFSSYAMGWFRQAPGKEREFVAAITWSGTRTDYADSVKGRFTISADNAKNTVYLQMNSLKPEDTAVYYCAAAAWRYSEYDYWGQGTQVTVSS | RU (TIGIT [1]): 77 RU; Kd (TIGIT [5]): 232 nM
 |  | TIGIT-29-33 VHH-V5-His (VHH, not shown: V5 and His tags) VHH: EVQLVESGGGLVQAGGSLRLSCAASGFIFSTYAMGWFRQAPGKERELVSAITRSGITTYYADSVKGRFTISADNAKNTVYLQMNSLKPEDTAVYYCAAAAWTIYEYDYWGQGTQVTVSS | RU (TIGIT [1]): 202 RU
2.08 | 0.144 | TIGIT-SC36 (Fc fusion, VHH-Fc) VHH: EVQLVESGGGLVQPGGSLRLSCAASGNTFNFNVMGWFRQAPGKEREAVASIWRSGGNTYYADSVKGRFTISADNSKNTAYLQMNSLKPEDTAVYYCARDLEWRPYYMDVWGQGTLVTVSS | 
 |  | TIGIT-31-56 (VHH-V5-His) (VHH, not shown: V5-His tag) VHH: EVQLVESGGGLVQPGGSLRLSCAASGRIFRRNSMGWFRQAPGKEREFVAVITRSGGGEVTTYADSVKGRFTINADNSKNTAYLQMNSLKPEDTAVYYCAMSSVTRGSSDWGQGTLVTVST | Kd (TIGIT [2]): 382 nM; RU (TIGIT [2]): 301 RU; koff (TIGIT [2]): 0.01 s⁻¹; kon (TIGIT [2]): 30000 M⁻¹ s⁻¹
1.78 | 0.125 | TIGIT-SC31 (Fc fusion, VHH-Fc) VHH: EVQLVESGGGLVQPGGSLRLSCAASGRAFESYAMGWFRQAPGKERELVATIGWSGTDYADSVKGRFTISADNSKNTAYLQMNSLKPEDTAVYYCAKGYTSGLSDWGQGTLVTVSS | 
0.181 | 0.143 | TIGIT-SC38 (Fc fusion, VHH-Fc) VHH: EVQLVESGGGLVQPGGSLRLSCAASGFTFSEYPMGWFRQAPGKEREFVAVVNWNGDSTYYADSVKGRFTISADNSKNTAYLQMNSLKPEDTAVYYCARGSDWYRYWGQGTLVTVSS | 
4.09 | 0.0846 | TIGIT-SC65 (Fc fusion, VHH-Fc) VHH: EVQLVESGGGLVQPGGSLRLSCAASGFTFGNYDMGWFRQAPGKEREFVAAITGSGRSTYYADSVKGRFTISADNSKNTAYLQMNSLKPEDTAVYYCARGRIAASGTKVYWYFDLWGQGTLVTVSS | 
13.4 | 0.259 | TIGIT-SC152 (Fc fusion, VHH-Fc) VHH: EVQLVESGGGLVQPGGNLRLSCAASGSTFSKHHAMGWFRQAPGKEREFVAGIIRSGTLKAYADSVKGRFTISADNSKNTAYLQMNSLKPEDTAVYYCTRGRAARHNLWYFDLWGQGTLVTVSS | 
9.58 | 0.197 | TIGIT-SC64 (Fc fusion, VHH-Fc) VHH: EVQLVESGGGLVQPGGSLRLSCAASGFAFSNFGMGWFRQAPGKERELVSAIGWSGASTYYADSVKGRFTISADNSKNTAYLQMNSLKPEDTAVYYCARRGRTIPFDYWGQGTLVTVSS | 
 |  | TIGIT-31-34 (VHH-V5-His) (VHH, not shown: V5-His tag) VHH: EVQLVESGGGLVQPGGSLRLSCAASGRSRYGMGWFRQAPGKEREFVSAISWSGISTYYADSVKGRFTISADNSKNTAYLQMNSLKPEDTAVYYCAATQWGSSGWKQARWYDWGQGTLVTVSS | Kd (TIGIT [2]): 473000 nM; RU (TIGIT [2]): 25300 RU; koff (TIGIT [2]): 0.2 s⁻¹; kon (TIGIT [2]): 400 M⁻¹ s⁻¹
1.53 | 0.0807 | TIGIT-SC57 (Fc fusion, VHH-Fc) VHH: EVQLVESGGGLVQPGGSLRLSCAASGNTFSGGFMGWFRQAPGKEREWVASVLRGGYTWYADSVKGRFTISADNSKNTAYLQMNSLKPEDTAVYYCTTYRGWGQGTLVTVSS | 
1.37 | 0.111 | TIGIT-SC46 (Fc fusion, VHH-Fc) VHH: EVQLVESGGGLVQPGGSLRLSCAASGRTFSNYVMGWFRQAPGKERELVASISSFGSTYYADSVKGRFTISADNSKNTAYLQMNSLKPEDTAVYYCARSGGFLSDWGQGTLVTVSS | 
11.9 | 0.263 | TIGIT-SC149 (Fc fusion, VHH-Fc) VHH: EVQLVESGGGLVQPGGSLRLSCAASGFTLENNMMGWFRQAPGKEREFVAAISRSGTLKAYADSVKGRFTISADNSKNTAYLQMNSLKPEDTAVYYCAKVQGPYCSGGSCYLYTFDLWGQGTLVTVSS | 
 |  | TIGIT-30-52 VHH-V5-His (VHH, not shown: V5 and His tags) VHH: EVQLVESGGGLVQAGGSLRLSCAASGRTFSNYFMGWFRQAPGKERESVATVTWRDNITYYADSVKGRFTISADNAKNTVYLQMNSLKPEDTAVYYCASAGRWGQGTQVTVSS | RU (TIGIT [1]): 270 RU
4.14 | 0.206 | TIGIT-SC151 (Fc fusion, VHH-Fc) VHH: EVQLVESGGGLVQPGGSLRLSCAASGFPFSIYPMGWFRQAPGKEREFVAAISASGTLRAYADSVKGRFTISADNSKNTAYLQMNSLKPEDTAVYYCARSSSWVRIFDYWGQGTLVTVSS | 
4.39 | 0.151 | TIGIT-SC193 (Fc fusion, VHH-Fc) VHH: EVQLVESGGGLVQPGGSLRLSCAASGFTFSDYWMGWFRQAPGKEREFVAAISRSGTLKAYADSVKGRFTISADNSKNTAYLQMNSLKPEDTAVYYCARGSGWPKIHFDYWGQGTLVTVSS | 
